In patent US20090208500A1 (Genentech, published 2009):
Residue numbers refer to the chain shown, from its start.

B1: humanized anti-CD20 antibody 2H7.v16, antibody pool with 35% to 37% nonfucosylation (from RNAi2 / RNAi4 transiently transfected clone #60 cells) (antibody, human IgG1, kappa)
heavy: not shown
light: DIQMTQSPSSLSASVGDRVTITCRASSSVSYMHWYQQKPGKAPKPLIYAPSNLASGVPSRFSGSGSGTDFTLTISSLQPEDFATYYCQQWSFNPPTFGQGTKVEIKRTVAAPSVFIFPPSDEQLKSGTASVVCLLNNFYPREAKVQWKVDNALQSGNSQESVTEQDSKDSTYSLSSTLTLSKADYEKHKVYACEVTHQGLSSPVTKSFNRGEC
modifications: N-linked glycan at Asn297; about 35 to 37% nonfucosylated
notes: differs only in fucose content of the Fc glycan; In the ELISA the IgG was complexed with goat F(ab')2 anti-kappa; RNAi2 and RNAi4 pools are reported together; also called 2H7 antibody pool with 35% to 37% nonfucosylation; lower fucose containing 2H7 antibodies
B2: humanized anti-CD20 antibody 2H7.v511 containing 65% nonfucosylation (from transient run) (antibody, human IgG1, kappa)
heavy: EVQLVESGGGLVQPGGSLRLSCAASGYTFTSYNMHWVRQAPGKGLEWVGAIYPGNGATSYNQKFKGRFTISVDKSKNTLYLQMNSLRAEDTAVYYCARVVYYSYRYWYFDVWGQGTLVTVSSASTKGPSVFPLAPSSKSTSGGTAALGCLVKDYFPEPVTVSWNSGALTSGVHTFPAVLQSSGLYSLSSVVTVPSSSLGTQTYICNVNHKPSNTKVDKKVEPKSCDKTHTCPPCPAPELLGGPSVFLFPPKPKDTLMISRTPEVTCVVVDVSHEDPEVKFNWYVDGVEVHNAKTKPREEQYNATYRVVSVLTVLHQDWLNGKEYKCKVSNAALPAPIAATISKAKGQPREPQVYTLPPSREEMTKNQVSLTCLVKGFYPSDIAVEWESNGQPENNYKTTPPVLDSDGSFFLYSKLTVDKSRWQQGNVFSCSVMHEALHNHYTQKSLSLSPGK
light: B1 light with M32L, S91A
modifications: N-linked glycan at Asn297; 65% nonfucosylation
notes: In the ELISA the IgG was complexed with goat F(ab')2 anti-kappa; also called hu2H7.v511; v511-NF
B3: humanized anti-CD20 antibody 2H7.v511 containing 94-95% nonfucosylation (from best stable clone RNAi2.4-3d) (antibody, human IgG1, kappa)
heavy: B2 heavy
light: B1 light with M32L, S91A
modifications: N-linked glycan at Asn297; 94-95% nonfucosylation
notes: In the ELISA the IgG was complexed with goat F(ab')2 anti-kappa; also called hu2H7.v511; 95% nonfucosylated material
B4: humanized 2H7.v16 antibody from stable RNAi4 clone 7C (63% non-fucosylation) (antibody, human IgG1, kappa)
heavy: not shown
light: B1 light
modifications: N-linked glycan at Asn297; 63% non-fucosylation
notes: Glycoform preparation of 2H7.v16 from clone 60 stably transfected with the RNAi4 construct
B5: humanized 2H7.v16 antibody from clone 'Parent' of Table 1 (5% non-fucosylation) (antibody, human IgG1, kappa)
heavy: not shown
light: B1 light
modifications: N-linked glycan at Asn297; 5% non-fucosylation
B6: humanized 2H7.v16 antibody from stable RNAi4 clone 6C (60% non-fucosylation) (antibody, human IgG1, kappa)
heavy: not shown
light: B1 light
modifications: N-linked glycan at Asn297; 60% non-fucosylation
notes: as for B4
B7: humanized 2H7.v16 antibody from clone 'Control' of Table 1 (3% non-fucosylation) (antibody, human IgG1, kappa)
heavy: not shown
light: B1 light
modifications: N-linked glycan at Asn297; 3% non-fucosylation
B8: humanized 2H7.v16 antibody from stable RNAi4 clone 5B (45% non-fucosylation) (antibody, human IgG1, kappa)
heavy: not shown
light: B1 light
modifications: N-linked glycan at Asn297; 45% non-fucosylation
notes: as for B4
B9: humanized 2H7.v16 antibody from stable RNAi4 clone 5F (70% non-fucosylation) (antibody, human IgG1, kappa)
heavy: not shown
light: B1 light
modifications: N-linked glycan at Asn297; 70% non-fucosylation
notes: as for B4

What follows are binders tested against T1, human FcγRIII (F158), low affinity isotype (human, UniProt P08637 17-208) (assay: FcγR binding ELISA; relative to 2H7 control cell line antibody (2 to 4% nonfucosylated)).
T1 construct: Receptor captured on plates by anti-GST (clone 8E2.1.1); also called FcγRIII (F158 allele); FcγRIIIA (F158); not shown: GST tag implied by capture on anti-GST coated plates
T1 sequence (P08637 17-208): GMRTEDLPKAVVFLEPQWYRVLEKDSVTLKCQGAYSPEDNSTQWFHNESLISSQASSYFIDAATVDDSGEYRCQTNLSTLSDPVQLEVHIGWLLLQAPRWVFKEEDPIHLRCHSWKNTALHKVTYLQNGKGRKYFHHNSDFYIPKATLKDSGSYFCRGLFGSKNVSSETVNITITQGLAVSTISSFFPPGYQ

Row | Binder | fold increase in binding affinity [fold]
1 | B1 | 6

What follows are binders tested against T2, human FcγRIII (V158), high affinity isotype (human, UniProt P08637 17-208) in the same assay as above.
T2 construct: Receptor captured by anti-GST; construct not described; also called FcγRIII (V158 allele); FcγRIIIA (V158); not shown: GST tag implied by capture on anti-GST coated plates
T2 sequence (P08637 17-208 F176V): as the sequence (P08637 17-208) above, with F160V counted along it

Row | Binder | fold increase in binding affinity [fold]
2 | B1 | 4

The binders below were run against T1, human FcγRIII (F158), low affinity … (assay: FcγRIII binding ELISA; relative to control 2H7.v511 antibody pools with about 5% nonfucosylation).
Method: (§1) Plates were washed with PBS containing 0.05% polysorbate, pH 7.4 (wash buffer) and blocked with PBS containing 0.5% BSA, pH 7.4, at 150 μl/well. After a one-hour incubation at room temperature, plates were washed with wash buffer. Human FcγRIII was added to the plates at 0.25 μg/ml, 100 μl/well, in PBS containing 0.5% BSA, 0.05% polysorbate 20, pH 7.4. (assay buffer). The plates were incubated for one hour and washed with wash buffer. Antibodies were incubated with goat F(ab′)₂ anti-K (Cappel, ICN Pharmaceuticals, Inc., Aurora, Ohio) at a 1:2 (w/w) ratio for 1 hour to form antibody complexes. Eleven […] serial dilutions of complexed IgG antibodies (0.85-50000 ng/ml in threefold serial dilution) in assay buffer were added to the plates. After a two-hour incubation, plates were washed with wash buffer. Bound IgG was detected by adding peroxidase labeled goat F(ab′)₂ anti-human IgG F(ab′)₂ (Jackson ImmunoResearch, West Grove, Pa.) at 100 μl/well in assay buffer. After a one-hour incubation, plates were washed with wash buffer and the substrate 3,3′,5,5′-tetramethyl benzidine (TMB) (Kirkegaard & Perry Laboratories) was added at 100 μl/well. The reaction was stopped by adding 1 M phosphoric acid at 100 μl/well. Absorbance was read at 450 nm on a multiskan Ascent reader (Thermo Labsystems, Helsinki, Finland). The absorbance at the midpoint of the standard curve (mid-OD) was calculated. The corresponding concentrations of standard and samples at this mid-OD were determined from the titration curves using a four-parameter nonlinear regression curve-fitting program (KaleidaGraph, Synergy software, Reading, Pa.). The relative activity was calculated by dividing the mid-OD concentration of standard by that of sample.
(§2) A FcγRIII binding assay was done with antibody 2H7.v511 containing either 65% nonfucosylation (from transient run) or 94-95% nonfucosylation (from best stable clone RNAi2.4-3d).

Row | Binder | fold increase in affinity [fold]
3 | B2 | 6.2
4 | B3 | 9.8

What follows are binders tested against T2, human FcγRIII (V158), high affinity … in the same assay as above.
Method: as §1, §2

Row | Binder | fold increase in affinity [fold]
5 | B2 | 4.8
6 | B3 | 6.8

These binders were tested against T1, human FcγRIII (F158), low affinity … (assay: FcγRIII binding ELISA; anti-GST captured receptor, IgG complexed with anti-kappa F(ab')2; relative activity).
Method: as §1, with “MaxiSorp 96-well microwell plates (Nunc, Roskilde, Denmark) were coated with 2 μg/ml anti-GST (clone 8E2.1.1, Genentech), at 100 μl/well in 50 mM carbonate buffer, pH 9.6, at 4° C. overnight. Plates” for “Plates”

Row | Binder | Binding (fold)
7 | B4 | 32.4
8 | B5 | 1
9 | B6 | 34
10 | B7 | 1
11 | B8 | 24.2
12 | B9 | 52.4

These binders were tested against T2, human FcγRIII (V158), high affinity … in the same assay as above.
Method: as §1, with “MaxiSorp 96-well microwell plates (Nunc, Roskilde, Denmark) were coated with 2 μg/ml anti-GST (clone 8E2.1.1, Genentech), at 100 μl/well in 50 mM carbonate buffer, pH 9.6, at 4° C. overnight. Plates” for “Plates”

Row | Binder | Binding (fold)
13 | B4 | 10.4
14 | B5 | 1
15 | B6 | 10.1
16 | B7 | 1
17 | B8 | 7.5
18 | B9 | 13.7
